According to article PMC3960220, “1,2-β-Oligoglucan Phosphorylase from Listeria innocua” (PLoS ONE, 2014):

Test system: O=P(O)(O)O[C@H]1O[C@H](CO)[C@@H](O)[C@H](O)[C@H]1O
Experiment: phosphate release, Lowry and Lopez molybdate method, A700
Type: biochemical, Listeria innocua
Details: synthetic reaction (donor, up to 10 mM), co-substrate 10 mM Sop2, 100 mM MOPS-NaOH pH 7.5, 30°C
From the text: phosphate release, Lowry and Lopez molybdate method, A700 on Lin1839r (recombinant Lin1839 protein; 1,2-β-oligoglucan phosphorylase)

Substance “Lin1839r (recombinant Lin1839 protein; 1,2-β-oligoglucan phosphorylase) (Listeria innocua Clip11262; T2A)” has a Km of 1200 ± 200 µM, a kcat of 43 ± 2 s⁻¹ and a kcat/Km of 34000 ± 4000 M⁻¹ s⁻¹.
